From PMC4691197 (PLoS ONE, 2015) come the findings set out here.

B1: Recombinant His-tagged WT αB-crystallin (natural protein, UniProt P02511 1-175, looked up)
chain: MDIAIHHPWIRRPFFPFHSPSRLFDQFFGEHLLESDLFPTSTSLSPFYLRPPSFLRAPSWFDTGLSEMRLEKDRFSVNLDVKHFSPEELKVKVLGDVIEVHGKHEERQDEHGFISREFHRKYRIPADVDPLTITSSLSSDGVLTVNGPRKQVSGPERTIPITREEKPAVTAAPKK
notes: αB-crystallin, wild type; Surmise: N-terminal His tag from pET 28b
B2: Recombinant His-tagged αB-crystallin N78D (natural protein, UniProt P02511 1-175, looked up)
chain: B1 chain with N78D
notes: αB-crystallin with the deamidation-mimicking change N78D, made by site-directed mutagenesis of the pET 28b construct of WT αB; Surmise: N-terminal His tag from pET 28b; also called αB N78D
B3: Recombinant His-tagged αB-crystallin N146D (natural protein, UniProt P02511 1-175, looked up)
chain: B1 chain with N146D
notes: αB-crystallin with the deamidation-mimicking change N146D, made by site-directed mutagenesis of the pET 28b construct of WT αB; Surmise: N-terminal His tag from pET 28b; also called αB N146D
B4: YFP αB CD (core domain of αB-crystallin, 65–146 amino acids) (domain or fragment, UniProt P02511 65-146, looked up)
chain: LSEMRLEKDRFSVNLDVKHFSPEELKVKVLGDVIEVHGKHEERQDEHGFISREFHRKYRIPADVDPLTITSSLSSDGVLTVN
notes: αB-crystallin core domain, residues 65-146; also called αB CD-YFP; source: HeLa, transfected, in live cells
B5: YFP αB CTE (C-terminal extension of αB-crystallin, 147–175 amino acids) (domain or fragment, UniProt P02511 147-175, looked up)
chain: GPRKQVSGPERTIPITREEKPAVTAAPKK
notes: αB-crystallin C-terminal extension, residues 147-175; also called αB CTE-YFP; source: HeLa, transfected, in live cells
B6: YFP WT αB-crystallin (natural protein, UniProt P02511 1-175, looked up)
chain: B1 chain
notes: αB-crystallin, wild type, in pZS Yellow1-N1; Surmise: whole αB-crystallin (1-175, as the domain limits imply) with the fluorescent protein at the C-terminus (N1 vector); Expressed as ~46 kDa protein; also called WT YFP αB-crystallin; YFP αB; source: HeLa, transfected, in live cells
B7: YFP αB N78D crystallin (natural protein, UniProt P02511 1-175, looked up)
chain: B1 chain with N78D
notes: αB-crystallin N78D, made by site-directed mutagenesis of the pZS Yellow1-N1 construct of αB-crystallin; Same limits as m12; source: HeLa, transfected, in live cells
B8: YFP αB N146D crystallin (natural protein, UniProt P02511 1-175, looked up)
chain: B1 chain with N146D
notes: αB-crystallin N146D, made by site-directed mutagenesis of the pZS Yellow1-N1 construct of αB-crystallin; Same limits as m12; source: HeLa, transfected, in live cells
B9: YFP αB NTD (N-terminal domain of αB-crystallin, 1–64 amino acids) (domain or fragment, UniProt P02511 1-64, looked up)
chain: MDIAIHHPWIRRPFFPFHSPSRLFDQFFGEHLLESDLFPTSTSLSPFYLRPPSFLRAPSWFDTG
notes: αB-crystallin N-terminal domain, residues 1-64; also called αB NTD-YFP; source: HeLa, transfected, in live cells

Residue numbers refer to the chain shown, from its start. Names may count otherwise.

In the first test the target is T1, Recombinant His-tagged WT βA3-crystallin (UniProt P05813 1-215).
T1 construct: βA3-crystallin, wild type; Surmise: cloning into Nhe I/Xho I of pET 28b with a stop codon in the insert gives an N-terminal His tag; no cleavage is mentioned
The test is described as follows: SPR; BIACORE 2000; βA3-crystallin immobilised on a CM5 chip by EDC/NHS to ~2500 RU; analytes 5 μM-25 μM at 20 μL/min; room temperature; 50 mM sodium phosphate, pH 7.8, 150 mM NaCl; regeneration with 1 M NaCl; duplicates; 1:1 Langmuir fit. The conditions noted are these: both partners purified. In general terms: In SPR one partner is held on a chip, and binding of the other changes the refractive index at the surface.
The term Kd denotes the free concentration of one partner at which half of the binding sites on the other are occupied at equilibrium, for simple one-to-one binding. For B1, the Kd came to 5.75 nM.
Same read-out and setting: to B2 belongs 2.46 nM; to B3, 5.05 nM.

For the next test, the target named is T2, CFP WT βA3-crystallin (UniProt P05813 1-215).
T2 construct: βA3-crystallin, wild type; Surmise: N1 vectors place the fluorescent protein at the C-terminus of the insert; Expressed as ~51 kDa protein; degraded products were also seen on blots; also called CFP βA3-crystallin; βA3- CFP; source: HeLa, transfected, in live cells
Briefly: FRET or BRET; FLIM-FRET in live HeLa cells co-transfected with CFP βA3-crystallin (donor) and YFP-tagged acceptors; donor life-time after 405 nm pulsed excitation; E = 1-TFRET/TCFP with TCFP 2.8 ns; 5-6 cells from 3 samples. The conditions noted are these: partners not purified.
B4: the FRET efficiency worked out at 14% and the “mean life-time of the donor CFP βA3-crystallin” value amounted to 2.5 ± 0.2 ns.
The matching figures for B5: 14% and 2.5 ± 0.2 ns.
Regarding B6, the FRET efficiency stood at 18% and the “mean life-time of the donor CFP βA3-crystallin” value was 2.4 ± 0.2 ns.
The matching figures for B7: 36% and 1.6 ± 0.3 ns.
The matching figures for B8: 22% and 2.2 ± 0.3 ns.
The matching figures for B9: 32% and 2.1 ± 0.3 ns.
